This note sets out measurements from patent US20040192900A1 (published 2004).

To fix the notation:
B1: chimeric 5/44 variant K60R (antibody, V domains shown)
VH: EVQLQQSGTVLARPGASVKMSCKASGYRFTNYWIHWVKQRPGQGLEWIGGINPGNNYTTYRRNLKGKATLTAVTSASTAYMDLSSLTSEDSAVYYCTREGYGNYGAWFAYWGQGTLVTVSS
VL: DVVVTQTPLSLPVSFGDQVSISCRSSQSLANSYGNTFLSWYLHKPGQSPQLLIYGISNRFSGVPDRFTGSGSGTDFTLKISTIKPEDLGMYYCLQGTHQPYTFGGGTKLEIKR
B2: chimeric 5/44 variant N55Q (antibody, V domains shown)
VH: EVQLQQSGTVLARPGASVKMSCKASGYRFTNYWIHWVKQRPGQGLEWIGGINPGNQYTTYKRNLKGKATLTAVTSASTAYMDLSSLTSEDSAVYYCTREGYGNYGAWFAYWGQGTLVTVSS
VL: DVVVTQTPLSLPVSFGDQVSISCRSSQSLANSYGNTFLSWYLHKPGQSPQLLIYGISNRFSGVPDRFTGSGSGTDFTLKISTIKPEDLGMYYCLQGTHQPYTFGGGTKLEIKR
B3: chimeric 5/44 variant T57A (antibody, V domains shown)
VH: EVQLQQSGTVLARPGASVKMSCKASGYRFTNYWIHWVKQRPGQGLEWIGGINPGNNYATYKRNLKGKATLTAVTSASTAYMDLSSLTSEDSAVYYCTREGYGNYGAWFAYWGQGTLVTVSS
VL: DVVVTQTPLSLPVSFGDQVSISCRSSQSLANSYGNTFLSWYLHKPGQSPQLLIYGISNRFSGVPDRFTGSGSGTDFTLKISTIKPEDLGMYYCLQGTHQPYTFGGGTKLEIKR

This assay has as its target CD22mFc (UniProt P20273 20-687). Kind of assay: Biacore. On the technique in general: In SPR one partner is held on a chip, and binding of the other changes the refractive index at the surface.
In turn, B1 yielded a Kd of 0.204 nM.

Molecule B2 gave a Kd of 0.327 nM.

As to B3, the Kd is 0.066 nM.

Usually Kd stands for the equilibrium constant for the complex coming apart. Read a high Kd as lower affinity.
